Assay [1] addresses ICP receptor sites on brush border membrane vesicles of Pieris brassicae (Pieris brassicae). Put plainly: 125I-toxin competition binding on P. brassicae BBMV, LIGAND analysis.
The target in assay [2] is ICP receptor sites on brush border membrane vesicles of the Bt18 selected Manduca sexta strain (Manduca sexta). Kind of assay: cell-based or functional assay.
Assay [3] deals with ICP receptor sites on brush border membrane vesicles of Manduca sexta (reference, non-selected strain) (Manduca sexta). Kind of assay: cell-based or functional assay.
Assay [4] deals with ICP receptor sites on brush border membrane vesicles of the Bt2 selected Manduca sexta strain (Manduca sexta). Kind of assay: cell-based or functional assay.
Assay [5] has as its target ICP receptor sites on brush border membrane vesicles of Manduca sexta (reference, non-selected strain) (Manduca sexta).
Assay [6] concerns the target ICP receptor sites on brush border membrane vesicles of Heliothis virescens (Heliothis virescens).
Assay [7] concerns the target ICP receptor sites on brush border membrane vesicles of the sensitive Plutella xylostella strain PxS (Plutella xylostella). Put plainly: 125I-toxin binding on P. xylostella BBMV.
Assay [8] addresses ICP receptor sites on brush border membrane vesicles of the Bt2/Bt18 selected Manduca sexta strain (Manduca sexta).
Assay [9] deals with ICP receptor sites on brush border membrane vesicles of the Bt18 selected Manduca sexta strain (Manduca sexta).
Assay [10] deals with ICP receptor sites on brush border membrane vesicles of Manduca sexta (reference, non-selected strain) (Manduca sexta). Kind of assay: 125I-toxin competition binding on BBMV, filtration, LIGAND analysis.
Assay [11] has as its target ICP receptor sites on brush border membrane vesicles of Heliothis virescens (Heliothis virescens). The description is as above.
Assay [12] addresses ICP receptor sites on brush border membrane vesicles of the Dipel-resistant Plutella xylostella strain PxR (Plutella xylostella). Kind of assay: cell-based or functional assay. On the set-up: unit not given beside the values.
The target of assay [13] is ICP receptor sites on brush border membrane vesicles of the sensitive Plutella xylostella strain PxS (Plutella xylostella). Put plainly: cell-based or functional assay. On the set-up: unit not given beside the values.
In assay [14] the target is ICP receptor sites on brush border membrane vesicles of Manduca sexta (reference, non-selected strain) (Manduca sexta). This is another data set of the same source.
Assay [15] shares this target. This is another data set of the same source.
Assay [16] shares this target. The source holds these as a separate data set.
Assay [17] addresses ICP receptor sites on brush border membrane vesicles of the Dipel-resistant Plutella xylostella strain PxR (Plutella xylostella). Put plainly: 125I-toxin binding on P. xylostella BBMV.

The text below walks through data of US6855873.

Values joined by “and” are separate entries in the source; they are usually repeats but may differ in a detail not shown here. Equal entries are not always repeated. Where two headings read alike, the source gives them in different places.

Chain of Bt3 toxin (P0A366 29-618 limits assumed): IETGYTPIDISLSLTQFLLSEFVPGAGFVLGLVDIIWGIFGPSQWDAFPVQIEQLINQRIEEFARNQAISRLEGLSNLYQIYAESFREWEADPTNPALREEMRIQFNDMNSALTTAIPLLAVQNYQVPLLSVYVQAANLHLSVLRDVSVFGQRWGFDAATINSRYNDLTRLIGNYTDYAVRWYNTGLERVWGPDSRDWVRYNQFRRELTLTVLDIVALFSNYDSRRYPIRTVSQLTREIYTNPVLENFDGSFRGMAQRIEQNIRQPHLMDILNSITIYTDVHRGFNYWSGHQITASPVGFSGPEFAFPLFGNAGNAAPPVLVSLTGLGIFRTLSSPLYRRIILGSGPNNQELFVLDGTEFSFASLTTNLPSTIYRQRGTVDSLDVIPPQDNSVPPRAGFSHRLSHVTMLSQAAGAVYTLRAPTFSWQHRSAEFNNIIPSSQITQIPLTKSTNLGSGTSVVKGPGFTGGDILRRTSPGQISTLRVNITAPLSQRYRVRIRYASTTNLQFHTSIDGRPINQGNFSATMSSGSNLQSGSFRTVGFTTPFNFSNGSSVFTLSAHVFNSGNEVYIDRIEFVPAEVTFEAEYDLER
Chain of Bt14 toxin (P0A374 30-647 limits assumed): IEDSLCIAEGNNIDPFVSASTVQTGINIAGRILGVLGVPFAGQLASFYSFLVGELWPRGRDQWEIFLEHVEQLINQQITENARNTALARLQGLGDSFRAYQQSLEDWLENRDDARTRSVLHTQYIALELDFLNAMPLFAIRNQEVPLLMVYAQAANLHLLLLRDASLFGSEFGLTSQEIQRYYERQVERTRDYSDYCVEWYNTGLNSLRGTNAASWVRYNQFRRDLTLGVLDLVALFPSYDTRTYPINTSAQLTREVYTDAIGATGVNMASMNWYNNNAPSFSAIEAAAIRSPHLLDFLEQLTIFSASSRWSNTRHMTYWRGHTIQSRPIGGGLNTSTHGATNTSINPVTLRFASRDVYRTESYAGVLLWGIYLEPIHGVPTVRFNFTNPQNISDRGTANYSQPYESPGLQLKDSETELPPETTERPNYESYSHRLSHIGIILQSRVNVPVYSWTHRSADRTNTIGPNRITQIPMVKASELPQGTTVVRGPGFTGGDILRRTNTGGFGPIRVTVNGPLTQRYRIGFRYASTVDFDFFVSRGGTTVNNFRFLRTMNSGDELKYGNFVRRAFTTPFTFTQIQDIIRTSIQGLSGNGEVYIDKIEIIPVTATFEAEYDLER

For the substance “Bt2 toxin (from UniProt P0A370 29-607) (ligand)”, the Kd (usually the constant that tells how readily two partners part at equilibrium) in assay [1] was found to be 2.8 nM; in assay [7], 8.1 nM; in assay [8], 0.4 nM; in [9] it was 0.4 nM; in assay [10], 0.4 nM; in assay [11] it was 0.6 nM. For the same substance, the Rt (binding site concentration) (pmol/mg vesicle protein) worked out at 12.9 in [1], 3.4 in [8], 3.4 in assay [10] and 9.7 in assay [11]. Besides, the LC50 (Bt2 sensitivity) is 4 ng/cm^2 in [2] and 20 ng/cm^2 in [3]. The LC50 of the 20th generation in [4] came out at 6400 µg/g. In addition, the amount bound with labeled toxin alone (cpm) in assay [5] is 1820 cpm; in assay [6], 1780 cpm. Also, in assay [7], the Rt (binding site concentration) (pmol/mg protein) turned out to be 1.6. Moreover, the Rt (binding site concentration) (pmoles/mg vesicle protein) in [9] was found to be 20.8. Besides, the LC50 (larval mortality, artificial diet) (ng protein per cm^2 of artificial diet) was greater than 1350 in assay [12] and 6.7 in [13].

On to “Bt3 toxin (from UniProt P0A366 29-618) (ligand)”, for which the amount bound with labeled toxin alone (cpm) in assay [5] worked out at 601 cpm; in assay [6], 472 cpm. Further, the Kd was determined as 1.5 nM in assay [10] and 1.2 nM in assay [11]. Also, the results for the Rt (binding site concentration) (pmol/mg vesicle protein) in [10] and in assay [11] were 9.8 and 3.7, respectively.

Turning to “Bt73 toxin (from UniProt P05068 29-623) (ligand)”, the amount bound with labeled toxin alone (cpm) in assay [5] was 2380 cpm; in assay [6], 6610 cpm. In addition, the figures for the Kd in [10] and in assay [11] were 0.6 nM and 0.8 nM, respectively. Besides, the figures for the Rt (binding site concentration) (pmol/mg vesicle protein) in assay [10] and in assay [11] were 4 and 19.5, respectively.

In assay [1], “Bt14 toxin (from UniProt P0A374 30-647) (ligand)” yielded a Kd of 8.4 nM and a Rt (binding site concentration) (pmol/mg vesicle protein) of 21.4.

Take “Bt15 toxin (from UniProt P0A376 28-627) (ligand)”: the Kd was 0.3 nM and 2.9 nM in assay [14]; 3.7 nM in assay [17]; 1.9 nM in assay [7]. In addition, in assay [15], the Rt1 (binding site concentration) (pmol/mg vesicle protein) stood at 5.9. Moreover, the Rt2 (binding site concentration) (pmol/mg vesicle protein) in assay [16] came out at 6.7. Besides, the Rt (binding site concentration) (pmol/mg protein) in [17] was found to be 5.8; in assay [7], 4.2. Besides, the LC50 (larval mortality, artificial diet) (ng protein per cm^2 of artificial diet) stood at 120 in assay [12] and 133 in [13].
